What all share (experiment): SPOT array
Experiment [1] concerns the target T1, Boi1 SH3 (BOI1_YEAST), P38041.
T1 chain: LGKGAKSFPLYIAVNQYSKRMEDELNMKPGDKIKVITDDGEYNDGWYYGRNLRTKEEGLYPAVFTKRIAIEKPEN

Experiment [2] addresses T2, Myo5 SH3 (MYO5_YEAST), Q04439.
T2 chain: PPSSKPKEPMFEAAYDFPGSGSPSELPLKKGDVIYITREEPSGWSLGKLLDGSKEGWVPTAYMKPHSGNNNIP

The target of experiment [3] is T3, Yhr016c SH3 (YSC84_YEAST), P32793.
T3 chain: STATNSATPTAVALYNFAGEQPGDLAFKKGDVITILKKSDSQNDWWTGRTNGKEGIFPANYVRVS

Experiment [4] has as its target T4, Rvs167 SH3 (RV167_YEAST), P39743.
T4 chain: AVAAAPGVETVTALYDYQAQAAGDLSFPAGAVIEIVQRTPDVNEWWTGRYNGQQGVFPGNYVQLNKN

For experiment [5], the target named is T5, Yfr024 SH3 (LSB3_YEAST), P43603.
T5 chain: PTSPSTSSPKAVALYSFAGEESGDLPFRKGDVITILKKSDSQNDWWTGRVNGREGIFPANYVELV

Experiment [6] concerns the target Sho1 SH3 (SHO1_YEAST), P40073.
In experiment [7] the target is T6, Boi2 SH3 (BOI2_YEAST), P39969.
T6 chain: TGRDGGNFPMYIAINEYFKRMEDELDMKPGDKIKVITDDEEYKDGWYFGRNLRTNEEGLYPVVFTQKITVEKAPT

Sho1 SH3 (SHO1_YEAST), P40073, sequence (P40073 295-366): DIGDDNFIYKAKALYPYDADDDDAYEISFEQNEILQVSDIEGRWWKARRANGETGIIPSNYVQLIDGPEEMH

As to VTDIKLTPTDPLVG [YDL230W 193-206], the normalised SPOT signal, Boehringer light units (BLU); mean over the file's lines of this peptide is 71.3 in experiment [1]; 852 in experiment [2]; 10.3 in experiment [3]; 31 in experiment [4]; 45.9 in experiment [5]; 47.9 in experiment [6]. This molecule showed a normalised SPOT signal, Boehringer light units (BLU); mean over the file's lines of this peptide in experiment [7] of 0.1.

Consider VSKAKLQPAKPQFT [YAR007C 257-270], for which the normalised SPOT signal, Boehringer light units (BLU); mean over the file's lines of this peptide is 657 in experiment [1]; 252 in experiment [2]; 50.6 in experiment [3]; 28.5 in experiment [4]; 96.3 in experiment [5]; 61.2 in experiment [6]. Also, the normalised SPOT signal, Boehringer light units (BLU); mean over the file's lines of this peptide in experiment [7] was found to be 21.4.

As to VVNEKEVPAEPETQ [YER120W 161-174], the normalised SPOT signal, Boehringer light units (BLU); mean over the file's lines of this peptide in experiment [1] worked out at 130; in experiment [2], 100; in experiment [3] it was 12.7; in experiment [4], 12.9; in experiment [5] it was 33; in experiment [6] it was 28.5. In addition, the normalised SPOT signal, Boehringer light units (BLU); mean over the file's lines of this peptide in experiment [7] stood at 34.2.

For VLTVKMSPSLPDEI [YCR030C 726-739], the normalised SPOT signal, Boehringer light units (BLU); mean over the file's lines of this peptide in experiment [1] is 173; in experiment [2], 230; in experiment [3], 20.6; in experiment [4], 4.4; in experiment [5], 444; in experiment [6], 49.5. In addition, the normalised SPOT signal, Boehringer light units (BLU); mean over the file's lines of this peptide in experiment [7] was 28.2.

Turning to VNIGRRSPYLPLQP [YLR212C 354-367], the normalised SPOT signal, Boehringer light units (BLU); mean over the file's lines of this peptide in experiment [1] worked out at 1040; in experiment [2], 476; in experiment [3], 19.5; in experiment [4], 75.4; in experiment [5], 284; in experiment [6] it was 94. This molecule also displayed a normalised SPOT signal, Boehringer light units (BLU); mean over the file's lines of this peptide in experiment [7] of 19.1.

In the case of VLKIKPLPYKPRGR [YER093C 584-597], the normalised SPOT signal, Boehringer light units (BLU); mean over the file's lines of this peptide in experiment [1] was determined as 1590; in experiment [2], 647; in experiment [3] it was 27.3; in experiment [4] it was 25; in experiment [5], 426; in experiment [6], 3410. Moreover, the normalised SPOT signal, Boehringer light units (BLU); mean over the file's lines of this peptide in experiment [7] is 34.8.

On to VNTPRSVPNSPNDG [YGL209W 201-214], for which the normalised SPOT signal, Boehringer light units (BLU); mean over the file's lines of this peptide in experiment [1] was 28.6; in experiment [2], 65; in experiment [3], 208; in experiment [4], 59.3; in experiment [5], 662; in experiment [6], 47.4. The molecule further had a normalised SPOT signal, Boehringer light units (BLU); mean over the file's lines of this peptide in experiment [7] of 28.

For VTSVKLHPNLPIVF [YOR269W 158-171], the normalised SPOT signal, Boehringer light units (BLU); mean over the file's lines of this peptide in experiment [1] came to 126; in experiment [2], 137; in experiment [3] it was 8.2; in experiment [4], 74; in experiment [5] it was 93.9; in experiment [6], 58.2. This molecule gave a normalised SPOT signal, Boehringer light units (BLU); mean over the file's lines of this peptide in experiment [7] of 10.5.

VSQRKKRPISPHLT [YMR118C 67-80]: the normalised SPOT signal, Boehringer light units (BLU); mean over the file's lines of this peptide in experiment [1] came to 216; in experiment [2], 814; in experiment [3] it was 10.3; in experiment [4], 31; in experiment [5] it was 299; in experiment [6] it was 59.1. For the same molecule, the normalised SPOT signal, Boehringer light units (BLU); mean over the file's lines of this peptide in experiment [7] amounted to 21.2.

With VQIKRADPHFPHDE [YMR140W 298-311], the normalised SPOT signal, Boehringer light units (BLU); mean over the file's lines of this peptide in experiment [1] is 33.5; in experiment [2] it was 132; in experiment [3], 41.5; in experiment [4], 63.1; in experiment [5], 44.1; in experiment [6], 30.6. This molecule also yielded a normalised SPOT signal, Boehringer light units (BLU); mean over the file's lines of this peptide in experiment [7] of 20.

As to VRSKRLFPVRPMAT [YAL040C 535-548], the normalised SPOT signal, Boehringer light units (BLU); mean over the file's lines of this peptide was found to be 362 in experiment [1]; 504 in experiment [2]; 236 in experiment [3]; 309 in experiment [4]; 2610 in experiment [5]; 244 in experiment [6]. The molecule also gave a normalised SPOT signal, Boehringer light units (BLU); mean over the file's lines of this peptide in experiment [7] of 0.

Take VVAVKIIPKKPWNA [YKL048C 113-126]: the normalised SPOT signal, Boehringer light units (BLU); mean over the file's lines of this peptide in experiment [1] came out at 85.7; in experiment [2], 115; in experiment [3], 14.7; in experiment [4], 47.8; in experiment [5] it was 42; in experiment [6] it was 66.9. The normalised SPOT signal, Boehringer light units (BLU); mean over the file's lines of this peptide in experiment [7] amounted to 30.9.

Turning to VPIDKKSPFYPGLD [YCL055W 187-200], the normalised SPOT signal, Boehringer light units (BLU); mean over the file's lines of this peptide is 152 in experiment [1]; 150 in experiment [2]; 20.7 in experiment [3]; 59.1 in experiment [4]; 32.1 in experiment [5]; 20.8 in experiment [6]. This molecule also displayed a normalised SPOT signal, Boehringer light units (BLU); mean over the file's lines of this peptide in experiment [7] of 31.1.

VVPERVKPAPPVSR [YPR171W 231-244]: the normalised SPOT signal, Boehringer light units (BLU); mean over the file's lines of this peptide in experiment [1] stood at 2710; in experiment [2], 150; in experiment [3], 88; in experiment [4] it was 53.2; in experiment [5] it was 479; in experiment [6], 43. This molecule also gave a normalised SPOT signal, Boehringer light units (BLU); mean over the file's lines of this peptide in experiment [7] of 51.5.
